In publication PMC5977995:

Experiments:
[1] = molecular target: T1, hnRNPA1 RNA-binding domain (human, UniProt P09651 1-196); test: EMSA
[2] = molecular target: T1, hnRNPA1 RNA-binding domain; test: UV photo-cross-linking

T1 sequence (P09651 1-196): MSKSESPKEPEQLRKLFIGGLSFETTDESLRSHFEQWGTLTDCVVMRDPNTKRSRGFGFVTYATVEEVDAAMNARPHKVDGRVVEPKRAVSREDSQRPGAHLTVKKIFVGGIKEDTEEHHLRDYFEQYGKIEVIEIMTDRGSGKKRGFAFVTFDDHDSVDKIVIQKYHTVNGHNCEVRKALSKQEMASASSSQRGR

Binder | Kd [1] [nM] | binding result [2]
UUAGGGUUAGGGUUAGGGUUAGGG (structured_RNA) [24-mer telomere RNA] | 37.6 | –
UUAGGGUUAGGG (structured_RNA, 5-bromouridine at position 8 (printed UUAGGGU(BrU)-AGGG)) [BrU 12-mer telomere RNA] | – | binds
